{"source": "patent US20180355338A1", "key": {"[1]": {"molecular_target": "TY-145 protease variant I150A, S173P, S175P, F180Y (Bacillus sp. TY-145)", "experiment": "Ki fitted from Suc-AAPF-pNA activity; Tris buffer pH 8; ratio against m3 (without I150A)"}, "[2]": {"molecular_target": "TY-145 protease variant I150N, S173P, S175P, F180Y (Bacillus sp. TY-145)", "experiment": "Ki fitted from Suc-AAPF-pNA activity; Tris buffer pH 8; ratio against m3 (without I150N)"}, "[3]": {"molecular_target": "TY-145 protease variant S114Q, S173P, S175P, F180Y (Bacillus sp. TY-145)", "experiment": "Ki fitted from Suc-AAPF-pNA activity; Tris buffer pH 8; ratio against m3 (without S114Q)"}, "[4]": {"molecular_target": "TY-145 protease variant G182A (Bacillus sp. TY-145)", "experiment": "Ki fitted from Suc-AAPF-pNA activity; Model B detergent; relative to TY145 backbone"}, "[5]": {"molecular_target": "TY-145 protease variant I150S (Bacillus sp. TY-145)", "experiment": "Ki fitted from Suc-AAPF-pNA activity; Model B detergent; relative to TY145 backbone"}, "[6]": {"molecular_target": "TY-145 protease variant L184F (Bacillus sp. TY-145)", "experiment": "Ki fitted from Suc-AAPF-pNA activity; Model B detergent; relative to TY145 backbone"}, "[7]": {"molecular_target": "TY-145 protease variant L184Y (Bacillus sp. TY-145)", "experiment": "Ki fitted from Suc-AAPF-pNA activity; Model B detergent; relative to TY145 backbone"}, "[8]": {"molecular_target": "TY-145 protease variant Q70F (Bacillus sp. TY-145)", "experiment": "Ki fitted from Suc-AAPF-pNA activity; Model B detergent; relative to TY145 backbone"}, "[9]": {"molecular_target": "TY-145 protease variant R224G (Bacillus sp. TY-145)", "experiment": "Ki fitted from Suc-AAPF-pNA activity; Model B detergent; relative to TY145 backbone"}, "[10]": {"molecular_target": "TY-145 protease variant S111R (Bacillus sp. TY-145)", "experiment": "Ki fitted from Suc-AAPF-pNA activity; Model B detergent; relative to TY145 backbone"}, "[11]": {"molecular_target": "TY-145 protease variant Y240R (Bacillus sp. TY-145)", "experiment": "Ki fitted from Suc-AAPF-pNA activity; Model B detergent; relative to TY145 backbone"}, "[12]": {"molecular_target": "TY-145 protease variant S173P, S175P, I178P, F180Y (Bacillus sp. TY-145)", "experiment": "Ki fitted from Suc-AAPF-pNA activity; Model B detergent; ratio against m3 (without I178P)"}, "[13]": {"molecular_target": "TY-145 protease variant K146F, S173P, S175P, F180Y (Bacillus sp. TY-145)", "experiment": "Ki fitted from Suc-AAPF-pNA activity; Model B detergent; ratio against m3 (without K146F)"}, "[14]": {"molecular_target": "TY-145 protease variant K146N, S173P, S175P, F180Y (Bacillus sp. TY-145)", "experiment": "Ki fitted from Suc-AAPF-pNA activity; Model B detergent; ratio against m3 (without K146N)"}, "[15]": {"molecular_target": "TY-145 protease variant S173P, S175P, F180Y, L184F (Bacillus sp. TY-145)", "experiment": "Ki fitted from Suc-AAPF-pNA activity; Model B detergent; ratio against m3 (without L184F)"}, "[16]": {"molecular_target": "TY-145 protease variant S173P, S175P, N176Y, F180Y (Bacillus sp. TY-145)", "experiment": "Ki fitted from Suc-AAPF-pNA activity; Model B detergent; ratio against m3 (without N176Y)"}, "[17]": {"molecular_target": "TY-145 protease variant S173P, S175P, F180Y, R224S (Bacillus sp. TY-145)", "experiment": "Ki fitted from Suc-AAPF-pNA activity; Model B detergent; ratio against m3 (without R224S)"}, "[18]": {"molecular_target": "TY-145 protease variant S27K, I150N, S171N, S173P, G174R, S175P, F180Y, Q198E, T297P (Bacillus sp. TY-145)", "experiment": "Ki fitted from Suc-AAPF-pNA activity; Model B detergent; ratio against m4 (without I150N)"}, "[19]": {"molecular_target": "TY-145 protease variant S27K, S171N, S173P, G174R, S175P, F180Y, L184Y, Q198E, T297P (Bacillus sp. TY-145)", "experiment": "Ki fitted from Suc-AAPF-pNA activity; Model B detergent; ratio against m4 (without L184Y)"}, "[20]": {"molecular_target": "TY-145 protease variant S27K, K146P, S148R, A151R, S171N, S173P, G174R, S175P, F180Y, Q198E, N199K, T297P (Bacillus sp. TY-145)", "experiment": "Ki fitted from Suc-AAPF-pNA activity; Model B detergent; ratio against m5 (without A151R)"}, "[21]": {"molecular_target": "TY-145 protease variant S27K, Q70N, G107N, I121V, E127Q, S173P, S175P, F180Y, L184F, Q198E, T297P (Bacillus sp. TY-145)", "experiment": "Ki fitted from Suc-AAPF-pNA activity; Model B detergent; ratio against m7 (without L184F)"}, "[22]": {"molecular_target": "TY-145 protease variant S27K, S173P, G174K, S175P, F180Y, L184Y, Q198E, N199K, T297P (Bacillus sp. TY-145)", "experiment": "Ki fitted from Suc-AAPF-pNA activity; Model B detergent; ratio against m8 (without L184Y)"}, "[23]": {"molecular_target": "TY-145 protease variant S27K, S173P, G174K, S175P, F180Y, L184F, Q198E, N199R, T297P (Bacillus sp. TY-145)", "experiment": "Ki fitted from Suc-AAPF-pNA activity; Model B detergent; ratio against m9 (without L184F)"}, "[24]": {"molecular_target": "TY-145 protease variant S27K, S171N, S173P, G174R, S175P, F180Y, Q198E, N199K, R224G, T297P (Bacillus sp. TY-145)", "experiment": "Ki fitted from Suc-AAPF-pNA activity; Model B detergent; ratio against m11 (without R224G)"}, "[25]": {"molecular_target": "TY-145 protease variant S27K, V162T, S173P, G174K, S175P, F180Y, L184F, Q197K, Q198E, T297P (Bacillus sp. TY-145)", "experiment": "Ki fitted from Suc-AAPF-pNA activity; Model B detergent; ratio against m14 (without L184F)"}}, "data": [{"substance": "Z-Gly-Ala-NHCH(CH2C6H4pOH)C(OH)(SO3Na)-H, wherein Z is benzyloxycarbonyl (peptide)", "values": [{"measurement": "relative Ki mutation", "setting": "[1]", "result": 0.4}, {"measurement": "relative Ki mutation", "setting": "[2]", "result": 0.21}, {"measurement": "relative Ki mutation", "setting": "[3]", "result": 0.34}, {"measurement": "IF (binding constant improvement factor, relative Ki)", "setting": "[4]", "result": 0.54}, {"measurement": "IF (binding constant improvement factor, relative Ki)", "setting": "[5]", "result": 0.2}, {"measurement": "IF (binding constant improvement factor, relative Ki)", "setting": "[6]", "result": 0.44}, {"measurement": "IF (binding constant improvement factor, relative Ki)", "setting": "[7]", "result": 0.22}, {"measurement": "IF (binding constant improvement factor, relative Ki)", "setting": "[8]", "result": 0.12}, {"measurement": "IF (binding constant improvement factor, relative Ki)", "setting": "[9]", "result": 0.6}, {"measurement": "IF (binding constant improvement factor, relative Ki)", "setting": "[10]", "result": 0.9}, {"measurement": "IF (binding constant improvement factor, relative Ki)", "setting": "[11]", "result": 0.84}, {"measurement": "relative Ki mutation", "setting": "[12]", "result": 0.51}, {"measurement": "relative Ki mutation", "setting": "[13]", "result": 0.25}, {"measurement": "relative Ki mutation", "setting": "[14]", "result": 0.93}, {"measurement": "relative Ki mutation", "setting": "[15]", "result": 0.31}, {"measurement": "relative Ki mutation", "setting": "[16]", "result": 0.81}, {"measurement": "relative Ki mutation", "setting": "[17]", "result": 0.5}, {"measurement": "relative Ki mutation", "setting": "[18]", "result": 0.24}, {"measurement": "relative Ki mutation", "setting": "[19]", "result": 0.18}, {"measurement": "relative Ki mutation", "setting": "[20]", "result": 0.75}, {"measurement": "relative Ki mutation", "setting": "[21]", "result": 0.37}, {"measurement": "relative Ki mutation", "setting": "[22]", "result": 0.21}, {"measurement": "relative Ki mutation", "setting": "[23]", "result": 0.22}, {"measurement": "relative Ki mutation", "setting": "[24]", "result": 0.74}, {"measurement": "relative Ki mutation", "setting": "[25]", "result": 0.17}]}]}
